This data set concerns Renilla luciferase RNA. Briefly: Barcoded aptazyme variant library screen: un-cleaved Renilla luciferase RNA by barcode read counts, HEK293-T cells. In kind it is cell-based. The conditions noted are these: un-cleaved Renilla luciferase RNA, HEK293-T cells cultured with 1 mM theophylline (ON) over without theophylline (OFF); barcode read counts, triplicate. In short, it runs like this:
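Aptazyme variants (seven theophylline aptamers inserted after each T3H48 ribozyme nucleotide, 9-nt barcoded) cloned into the 3′ UTR of Renilla luciferase in psiCHECK-2; cells cultured ± theophylline, in triplicate. RNA and DNA barcodes amplified and sequenced; normalized read counts gave un-cleaved RNA fraction and ON/OFF fold-change.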

B1: RA001 (nucleic acid)
DNA: GCGCGTCCTGGATTCGCGGAAACGCGTACATCCAGCTGACGAGTCCCAAATAGGACGAAACGCGCAGTGATACCAGCATCGTCTTGATGCCCTTGGCAGCACT
modifications: expressed or natural sequence
Regarding B1, the “Fold change in RNA expression between the ON state and the OFF state” value (“Fold change” for short) is above 6 fold.

B2: RA187 (nucleic acid)
DNA: GCGCGTCCTGGATTCGCGGAAACGCGTACATCCAGCTGACGAGTCCCAAATAGGACGAAACGCGCGAGAATACCAGCATCGTCTTGATGCCCTTGGAAGTCTC
modifications: expressed or natural sequence
Consider B2, for which the “Fold change” value is 1.3 fold.

B3: RA186 (nucleic acid)
DNA: GCGCGTCCTGGATTCGCGCGAGAATACCAGCATCGTCTTGATGCCCTTGGAAGTCTCGGAAACGCGTACATCCAGCTGACGAGTCCCAAATAGGACGAAACGCGC
modifications: expressed or natural sequence
As for B3, the “Fold change” value is 1.3 fold.

B4: RA180 (nucleic acid)
DNA: GCGCGTCCTGGATTCGCGGAAACGCGTACATCCAGCTGGAGAATACCAGCATCGTCTTGATGCCCTTGGAAGTCTCACGAGTCCCAAATAGGACGAAACGCGC
modifications: expressed or natural sequence
Regarding B4, the “Fold change” value is 1.3 fold.

B5: RA179 (nucleic acid)
DNA: GCGCGTCCTGGATTCGCGGAAACGCGTACATCCAGCTCGGAATACCAGCATCGTCTTGATGCCCTTGGAAGTCCGGACGAGTCCCAAATAGGACGAAACGCGC
modifications: expressed or natural sequence
On to B5, for which the “Fold change” value is 1.3 fold.

B6: RA188 (nucleic acid)
DNA: GCGCGTCCTGGATTCGCGGAAACGCGTACATCCAGCTGACGAGTCCCAAATAGGACGAAGAGAATACCAGCATCGTCTTGATGCCCTTGGAAGTCTCACGCGC
modifications: expressed or natural sequence
For B6, the “Fold change” value is on record as 1.2 fold.

B7: RA182 (nucleic acid)
DNA: GCGCGTCCTGGATTCGCGGAAACGCGGAGAATACCAGCATCGTCTTGATGCCCTTGGAAGTCTCTACATCCAGCTGACGAGTCCCAAATAGGACGAAACGCGC
modifications: expressed or natural sequence
As to B7, the “Fold change” value worked out at 1.3 fold.

B8: RA191 (nucleic acid)
DNA: GCGCGTCCTGGATTCGCGGAACGAGAATACCAGCATCGTCTTGATGCCCTTGGAAGTCTCGACGCGTACATCCAGCTGACGAGTCCCAAATAGGACGAAACGCGC
modifications: expressed or natural sequence
Regarding B8, the “Fold change” value came out at 1.2 fold.

B9: RA175 (nucleic acid)
DNA: GCGCGTCCTGGATTCGCGGAAACGCGTACATCCAGCTGACGAGTCCCAAATAGGACGAAACGCGCCGAGAATACCAGCATCGTCTTGATGCCCTTGGAAGTCTCG
modifications: expressed or natural sequence
In the case of B9, the “Fold change” value came out at 1.3 fold.

B10: RA171 (nucleic acid)
DNA: GCGCGTCCTGGATTCGCGGAAACGCGTACACGAGAATACCAGCATCGTCTTGATGCCCTTGGAAGTCTCGTCCAGCTGACGAGTCCCAAATAGGACGAAACGCGC
modifications: expressed or natural sequence
For B10, the “Fold change” value is 1.3 fold.

B11: RA173 (nucleic acid)
DNA: GCGCGTCCTGGATTCGCGGAAACGCGTACATCCAGCTGACGAGTCCCAAATAGCGGAATACCAGCATCGTCTTGATGCCCTTGGAAGTCCGGACGAAACGCGC
modifications: expressed or natural sequence
Turning to B11, the “Fold change” value stood at 1.3 fold.

B12: RA172 (nucleic acid)
DNA: AGAATACCAGCATCGTCTTGATGCCCTTGGAAGTCTGCGCGTCCTGGATTCGCGGAAACGCGTACATCCAGCTGACGAGTCCCAAATAGGACGAAACGCGC
modifications: expressed or natural sequence
As for B12, the “Fold change” value came out at 1.3 fold.

B13: RA183 (nucleic acid)
DNA: GCGCGTCCTGGATTCGCGGAAACGCGTACATCCAGCTGAGAATACCAGCATCGTCTTGATGCCCTTGGAAGTCTACGAGTCCCAAATAGGACGAAACGCGC
modifications: expressed or natural sequence
Turning to B13, the “Fold change” value is 1.3 fold.

B14: RA169 (nucleic acid)
DNA: GCGCGTCCTGGCCGGAATACCAGCATCGTCTTGATGCCCTTGGAAGTCCGGATTCGCGGAAACGCGTACATCCAGCTGACGAGTCCCAAATAGGACGAAACGCGC
modifications: expressed or natural sequence
Regarding B14, the “Fold change” value is 1.3 fold.

B15: RA185 (nucleic acid)
DNA: GCGCGTCCTGGATTCGCGGAAACGCGTACATCCAGCTGACGAGTCCCAAATACGGAATACCAGCATCGTCTTGATGCCCTTGGAAGTCCGGGACGAAACGCGC
modifications: expressed or natural sequence
Consider B15, for which the “Fold change” value came to 1.3 fold.

B16: RA168 (nucleic acid)
DNA: GCGCGTCCTGGATCGAGAATACCAGCATCGTCTTGATGCCCTTGGAAGTCTCGTCGCGGAAACGCGTACATCCAGCTGACGAGTCCCAAATAGGACGAAACGCGC
modifications: expressed or natural sequence
Take B16: the “Fold change” value was found to be 1.3 fold.

B17: RA178 (nucleic acid)
DNA: GCGCGTCCTGGATTCGCGGAAACGCGTACATCCGGAATACCAGCATCGTCTTGATGCCCTTGGAAGTCCAGCTGACGAGTCCCAAATAGGACGAAACGCGC
modifications: expressed or natural sequence
For the molecule B17, the “Fold change” value is reported as 1.3 fold.

B18: RA181 (nucleic acid)
DNA: GCGCGCCGGAATACCAGCATCGTCTTGATGCCCTTGGAAGTCCGGTCCTGGATTCGCGGAAACGCGTACATCCAGCTGACGAGTCCCAAATAGGACGAAACGCGC
modifications: expressed or natural sequence
In the case of B18, the “Fold change” value was determined as 1.3 fold.

B19: RA176 (nucleic acid)
DNA: GCGCGTCCTGGAATACCAGCATCGTCTTGATGCCCTTGGAAGTCCGGATTCGCGGAAACGCGTACATCCAGCTGACGAGTCCCAAATAGGACGAAACGCGC
modifications: expressed or natural sequence
As to B19, the “Fold change” value came to 1.3 fold.

B20: RA017 (nucleic acid)
DNA: GCGCGTCCTGGCGGAATACCAGCATCGTCTTGATGCCCTTGGAAGTCCGATTCGCGGAAACGCGTACATCCAGCTGACGAGTCCCAAATAGGACGAAACGCGC
modifications: expressed or natural sequence
Take B20: the “Fold change” value is listed as 2.8 fold.

B21: RA018 (nucleic acid)
DNA: GCGCGTCCTGGATTCGCGGAAACGCGTACATCCAGCTGACGAGTCCCAAAGTGATACCAGCATCGTCTTGATGCCCTTGGCAGCACTATAGGACGAAACGCGC
modifications: expressed or natural sequence
In the case of B21, the “Fold change” value is on record as 2.8 fold.

B22: RA174 (nucleic acid)
DNA: GCGCGTCCTGGATTCGCGGAAACGCGTACATCCAGCCGGAATACCAGCATCGTCTTGATGCCCTTGGAAGTCCGTGACGAGTCCCAAATAGGACGAAACGCGC
modifications: expressed or natural sequence
As for B22, the “Fold change” value was 1.3 fold.

B23: RA184 (nucleic acid)
DNA: GAGAATACCAGCATCGTCTTGATGCCCTTGGAAGTCTCGCGTCCTGGATTCGCGGAAACGCGTACATCCAGCTGACGAGTCCCAAATAGGACGAAACGCGC
modifications: expressed or natural sequence
B23: the “Fold change” value is listed as 1.3 fold.

B24: RA177 (nucleic acid)
DNA: GCGCGTCCTGGATTCGCGGAAACGCGTACATCCAGCTGACGAGTCCCAAATAGGACGAAACGCAGTGATACCAGCATCGTCTTGATGCCCTTGGCAGCACTGC
modifications: expressed or natural sequence
Take B24: the “Fold change” value amounted to 1.3 fold.

B25: RA190 (nucleic acid)
DNA: GCGCGTCCTGGATTCGCGAGTGATACCAGCATCGTCTTGATGCCCTTGGCAGCACTGAAACGCGTACATCCAGCTGACGAGTCCCAAATAGGACGAAACGCGC
modifications: expressed or natural sequence
In the case of B25, the “Fold change” value amounted to 1.2 fold.

B26: RA189 (nucleic acid)
DNA: GCGCGTCCTGGATTCGGAATACCAGCATCGTCTTGATGCCCTTGGAAGTCCGCGGAAACGCGTACATCCAGCTGACGAGTCCCAAATAGGACGAAACGCGC
modifications: expressed or natural sequence
Turning to B26, the “Fold change” value was 1.2 fold.

B27: RA170 (nucleic acid)
DNA: GCGCGTCCTGGATTCGCGGAAACGCGTACATCCAGCTGACGAGTCCCAAATAGGACGAAACGCAGAATACCAGCATCGTCTTGATGCCCTTGGAAGTCTGC
modifications: expressed or natural sequence
In the case of B27, the “Fold change” value is 1.3 fold.

The values above are taken from patent US20260167959A1, “APTAZYME-BASED REGULATABLE GENE EXPRESSION SYSTEMS” (REJUVENATE BIO INC, priority 2022, published 2026).
